Results from US20030166036A1, “Protease and an aminopeptidase associated with development of benign prostatic hyperplasia (BPH)” (priority 2001, published 2003).

Key:
proPSA = molecular target: T1, proPSA (Homo sapiens, UniProt P07288); experiment: Incubation of proPSA with lysyl endopeptidase C, cleavage followed by HIC-HPLC; format: biochemical; settings: recombinant pPSA (zymogen), 0.1% LysC in PBS pH 7
T1 construct: due to the altered folding in the zymogen form of PSA; made in house
Protocol: (§1) High-performance hydrophobic interaction chromatography (HIC-HPLC) was performed using a polypropylaspartamide column (PolyLC, distributed by Western Analytical, Temecula, Calif.). The column was 4.6×250 mm in length with a 1000 Å pore size. Samples were applied in 1.5 M ammonium sulfate and eluted with a gradient. Buffers were prepared as follows. Buffer A consisted of 1.2 M sodium sulfate, 25 mM sodium phosphate, and a pH of 6.3, and Buffer B consisted of 50 mM sodium phosphate and 5% v/v 2-propanol. The gradient was 0-30% B for 1 minute, 30-60% B 10 minutes, followed by re-equilibration in Buffer A. High-sensitivity peak detection was obtained with a Varian Model 9070 (Varian Medical Systems, Palo Alto, Calif.) scanning fluorescence detector using an excitation of 232 nm and an emission of 334 nm to detect the tryptophan residues in protein.
Samples of PSA and proPSA were incubated with 0.1% lysyl endopeptidase C (Wako Cemicals USA, Richmond, Va.) in PBS at pH 7 for the times indicated in the figures. […] The internal cleavage sites of the different HIC-HPLC peaks were determined by N-terminal sequencing.
ProPSA (pPSA) was also incubated with LysC to determine if there was any difference between the cleavage of the Lys145 and Lys182 sites due to the altered folding in the zymogen form of PSA. […] The cleavage of the Lys182 and Lys145 sites in pPSA was also monitored by HIC-HPLC. […]

PSA = molecular target: T2, PSA (Homo sapiens, UniProt P07288); experiment: Incubation of PSA with lysyl endopeptidase C, cleavage followed by HIC-HPLC and N-terminal sequencing; format: biochemical
T2 construct: Unlike the purified mature PSA, pPSA was isolated from a recombinant expression system; from tissue; host or cells: seminal plasma
T2 sequence (P07288 25-261): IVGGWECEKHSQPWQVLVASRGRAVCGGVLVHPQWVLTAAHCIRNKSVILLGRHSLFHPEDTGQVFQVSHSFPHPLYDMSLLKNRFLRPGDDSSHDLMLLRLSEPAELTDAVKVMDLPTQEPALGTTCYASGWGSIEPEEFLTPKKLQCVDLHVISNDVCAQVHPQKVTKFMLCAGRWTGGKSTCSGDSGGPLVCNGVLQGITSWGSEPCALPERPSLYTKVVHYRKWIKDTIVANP
Protocol: as §1
N-terminal sequence analysis of the samples was performed on a PE-Applied Biosystems Model 492 amino acid sequencer (PE-Applied Biosystems, Foster City, Calif.). Purified PSA and peaks collected by HIC-HPLC were applied directly to Prosorb cartridges (PE-Applied Biosystems, Foster City, Calif.), washed three times with 0.1 ml 0.01% trifluoroacetic acid, and applied to the sequencer.
Samples of PSA and proPSA were incubated with 0.1% lysyl endopeptidase C (Wako Cemicals USA, Richmond, Va.) in PBS at pH 7 for the times indicated in the figures. The LysC reaction was quenched by the addition of a 10-fold molar excess of aprotinin prior to analysis by HIC-HPLC. The internal cleavage sites of the different HIC-HPLC peaks were determined by N-terminal sequencing.
We also examined the digestion of PSA with LysC in vitro to determine the relative susceptibility of the Lys145 and Lys182 sites.

T1 sequence (P07288 18-261 limits assumed): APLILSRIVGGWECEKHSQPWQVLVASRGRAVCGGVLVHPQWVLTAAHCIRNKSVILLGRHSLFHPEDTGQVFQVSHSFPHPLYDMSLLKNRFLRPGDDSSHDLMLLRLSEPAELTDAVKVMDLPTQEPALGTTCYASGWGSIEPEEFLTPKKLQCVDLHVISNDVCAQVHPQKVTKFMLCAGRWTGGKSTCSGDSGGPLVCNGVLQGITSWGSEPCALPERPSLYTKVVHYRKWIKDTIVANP

B1: LysC: lysyl endopeptidase C (Wako), commercial protease with wide specificity for lysine residues, used to cleave PSA in vitro (protein)
chain: GVSGSCNIDVVCPEGDGRRDIIRAVGAYSKSGTLACTGSLVNNTANDRKMYFLTAHHCGMGTASTAASIVVYWNYQNSTCRAPNTPASGANGDGSMSQTQSGSTVKATYATSDFTLLELNNAANPAFNLFWAGWDRRDQNYPGAIAIHHPNVAEKRISNSTSPTSFVAWGGGAGTTHLNVQWQPSGGVTEPGSSGSPIYSPEKRVLGQLHGGPSSCSATGTNRSDQYGRVFTSWTGGGAAASRLSDWLDPASTGAQFIDGLDSGGGTP
initial rate of cleavage of the Lys182 (proPSA): 8 % per minute | rate of cleavage at Lys145 (proPSA): about 0.6 % per minute | Lys182 cleaved more rapidly than Lys145 (PSA; PSA digested with LysC in vitro): approximately 30 times | PSA cleaved at Lys182 (PSA; after 30 minutes of incubation with LysC): 100% | initial rate of cleavage at Lys182 (PSA; mature PSA purified from seminal plasma, 0.1% LysC in PBS pH 7): 12 % per minute | rate of cleavage at Lys145 (PSA; mature PSA, 0.1% LysC in PBS pH 7, based on time points greater than 30 minutes): 0.3 % per minute
